From patent US20200190171A1 (FAIRBANKS PHARMACEUTICALS, published 2020)

Experiments:
mouse FSTL3 = target: T1, mouse FSTL3 (mouse, UniProt Q9EQC7 24-256, limits assumed); assay: Western blot
T1 construct: also called mFSTL3
T1 sequence (looked up): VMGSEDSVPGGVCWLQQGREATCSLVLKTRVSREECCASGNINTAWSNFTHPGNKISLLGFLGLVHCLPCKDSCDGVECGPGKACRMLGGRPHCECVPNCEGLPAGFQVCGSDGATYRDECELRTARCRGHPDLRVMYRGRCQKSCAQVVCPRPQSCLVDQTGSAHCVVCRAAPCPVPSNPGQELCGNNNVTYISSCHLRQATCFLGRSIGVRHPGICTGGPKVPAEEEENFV
Method: (§1) Secondary antibody (donkey anti-mouse IgG-Horse Radish Peroxidase label) was purchased from Jackson Immuno Research in West Grove Pa. Human FSTL3 was produced by Fairbanks Pharmaceuticals by cloning the human FSTL3 cDNA into an expression plasmid containing a 6-His tag. 293 cells were transfected with this plasmid and stable colonies selected. Cells were grown for 7-14 days, medium collected, and FSTL3 was purified on Nickel-Sepharose-Sephadex Beads (GE Healthcare Life Sciences, Pittsburgh Pa. Ligands: activin A (Cat No:338-AC-050), activin B (Cat No:659-AB-005), and MSTN (Cat No:788-68-010) were purchased from R&D Systems (Minneapolis, Minn.). GDF11 (Cat No:TP723130), was purchased from Origene (Rockville Md.)
(§2) Direct binding studies were conducted by performing Western blot, a technique well known in the art. Pre-determined doses of human FSTL3 (hFSTL3) or mouse FSTL3 (mFSTL3), that are easily detectable at the end of experimentation, were loaded onto SDS gels (10% NuPage gels). After electrophoresis, proteins were transferred to PVDF membranes and then tested with the selected and purified anti-hFSTL3 antibodies from FIG. 3.

[1] = target: T2, human Follistatin-like-3 (FSTL3) protein, 6-His tagged (human, UniProt O95633 27-263, limits assumed); assay: Western blot
T2 construct: Made in-house as a secreted protein from stably transfected 293 cells; also called hFSTL3; human FSTL3; not shown: 6-His tag
T2 sequence (looked up): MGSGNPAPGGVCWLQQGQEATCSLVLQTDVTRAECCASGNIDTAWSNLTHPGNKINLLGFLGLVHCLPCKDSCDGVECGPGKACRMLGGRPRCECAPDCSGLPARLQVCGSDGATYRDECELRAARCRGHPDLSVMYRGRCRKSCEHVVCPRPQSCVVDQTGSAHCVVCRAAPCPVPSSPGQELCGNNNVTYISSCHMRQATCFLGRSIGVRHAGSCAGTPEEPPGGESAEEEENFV
Method: as §1, §2

B1: FP-102 anti-hFSTL3 monoclonal antibody (antibody, V domains shown)
VH: QVKLQQPGAELVKPGASVKLSCKASGYTFTSYWMHWVNQRPGQGLEWIGEINPGNGRTNYNEKFKSKATLTVDKSSSTAYMQLSSLTSEDSAVYFCARWLLPRGPMDYWGQGTSVTVSS
VL: DIVLTQSQKFMSTSVGDRVSVTCKASQNVGTNVAWYQQKPGQSPQGLIYSASYRYSGVPDRFTGSGSGTDFTLTISNVQSEDLAEYFCQQYNSYPLTFGAGTKLELKR
notes: Murine monoclonal from Balb-C mice; also called clone 33
Mouse FSTL3
  binding result: binds
[1]
  binding result: binds
